{
  "source": "paper PMC8087942",
  "about": "“Full closed loop open‐source algorithm performance comparison in pigs with diabetes” (Clinical and Translational Medicine, 2021)",
  "assay": "Insulin lispro pharmacokinetics after subcutaneous Humalog in fasted pigs with diabetes (plasma lispro by ELISA)",
  "format": "in vivo, pig",
  "conditions": "pilot study, pigs with diabetes (n = 6), fasted 4–6 h, 4 U Humalog (100 U/ml) subcutaneous, plasma lispro by Insulin Lispro ELISA (Mercodia)",
  "experimental": "Insulin pharmacokinetics are more rapid in pigs than in humans. ^19 , ^20 , ^29 Thus, it was necessary to construct models for insulin action to be used in both open‐source systems, which model insulin action as an exponential curve. In AndroidAPS, the parameters defining the curve are time‐to‐peak action (TPA) and total duration of insulin action (DIA). ^23 Loop uses time‐to‐onset, TPA, and DIA. ^15 The pig pharmacokinetic curves for use in open‐source algorithms were determined from data obtained during a pilot study in pigs (n = 6). This experimental pharmacokinetic curve is consistent with pharmacokinetics observed in the pigs used in this study. ^20 Pigs were kept on fast 4–6 h and then injected subcutaneously with a 4 U dose of Humalog (100 U/ml, Eli Lilly). Before injection, baseline blood was sampled from an intravenous catheter line and measured using a handheld glucose monitor (Bayer Contour Next). After injection, blood was sampled from the intravenous catheter line every 5 min for the first 60 min, then every 30 min up to 4 h. Blood was collected in K2EDTA plasma tubes (Greiner‐BioOne) for analysis with ELISA. Plasma lispro concentrations were quantified using an Insulin Lispro ELISA kit (Mercodia). Pharmacodynamics were approximated by blood glucose measurements in a stable fasting state after 2–3 h (Figure 2A). […]",
  "data": [
    {"substance": "Humalog: Commercial rapid-acting insulin lispro formulation (100 U/ml, Eli Lilly) injected subcutaneously in pigs", "values": [
      {"measurement": "near complete exposure duration", "value": "~2", "unit": "h"},
      {"measurement": "time of peak serum concentrations", "setting": "sampled every 5 min for 60 min, then every 30 min up to 4 h", "value": "20 to 25", "unit": "min"}
    ]}
  ]
}
